# From US20250163146A1 (H LEE MOFFITT CANCER CENTER AND RESEARCH INSTITUTE, published 2025)
# Tests used:
# human DLL4 (N-EGF3) [1] = biological target: T1, human DLL4 (N-EGF3) (human, UniProt Q9NR61 27-323, limits assumed, biotinylated (site not stated); used unlabeled in the complex with biotinylated hNotch1 (6-13)); assay: yeast display, biotinylated human DLL4 (N-EGF3) + SA-647, flow cytometry
# T1 construct: domain: N-EGF3; also called hDLL4; hDLL4 (N-3)
# Procedure: (§1) The eight anti-DLL4 nanobody clones were then tested for cross-reactivity between human and mouse DLL4. Yeast cells expressing each nanobody were stained with biotinylated human DLL4 (N-EGF3), washed, stained with SA-647, and then analyzed by flow cytometry.
# [2] = biological target: T2, biotinylated murine DLL4 protein, truncation containing the C2, DSL, and EGF1-3 domains (DLL4 (N-EGF3)) (mouse, UniProt Q9JI71 27-324, limits assumed, biotinylated (site not stated)); assay: yeast display, flow cytometry (FIG. 1)
# T2 construct: domain: C2, DSL, and EGF1-3 domains (N-EGF3); also called mDLL4; mouse DLL4
# T2 sequence (Q9JI71 27-324 limits assumed): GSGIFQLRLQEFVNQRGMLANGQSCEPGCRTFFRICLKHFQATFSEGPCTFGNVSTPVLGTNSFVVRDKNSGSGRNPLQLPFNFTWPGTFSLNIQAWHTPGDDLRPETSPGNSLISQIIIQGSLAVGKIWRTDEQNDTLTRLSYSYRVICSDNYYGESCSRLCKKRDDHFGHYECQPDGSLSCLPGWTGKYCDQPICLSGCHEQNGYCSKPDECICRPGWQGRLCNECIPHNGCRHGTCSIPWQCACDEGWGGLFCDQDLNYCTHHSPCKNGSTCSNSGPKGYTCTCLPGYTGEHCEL
# Procedure: (§2) 162. To isolate binding molecules that interrupted the interaction of DLL4 and Notch1, we performed several rounds of selection using decreasing concentrations of biotinylated murine DLL4 protein. The mDLL4 protein was a truncation that contained the C2, DSL, and EGF1-3 domains (DLL4 (N-EGF3)). To perform a selection, the library was stained with biotinylated mDLL4, washed, incubated with streptavidin-647, washed, and then binders isolated selected using either (a) magnetic beads coated with an anti-647 antibody or (b) FACS. The mDLL4-binding yeast were then plated so that individual colonies could be picked and cultured to isolate individual clones. The clones were then each stained with mDLL4 and SA-647 and analyzed by flow cytometry to confirm that they bound to mDLL4. (FIG. 1).
# human DLL4 (N-EGF3) [3] = biological target: T1, human DLL4 (N-EGF3); assay: yeast display, biotinylated human DLL4 (N-EGF3), SA-647, flow cytometry
# Procedure: as §1
# [4] = biological target: T3, human DLL4 (N-terminus to EGF5) (human, UniProt Q9NR61 27-401, limits assumed, biotinylated in the flow cytometry titration (site not stated); not stated for the plate-coated protein); assay: nanobody incubated with increasing concentrations of biotinylated human DLL4 (N-terminus to EGF5), streptavidin Alexa Fluor 647, flow cytometry
# T3 construct: domain: N-terminus to EGF5 (C2, DSL, and EGF1-5 domains); also called recombinant human DLL4 protein containing the C2, DSL, and EGF1-5 domains
# T3 sequence (Q9NR61 27-401 limits assumed): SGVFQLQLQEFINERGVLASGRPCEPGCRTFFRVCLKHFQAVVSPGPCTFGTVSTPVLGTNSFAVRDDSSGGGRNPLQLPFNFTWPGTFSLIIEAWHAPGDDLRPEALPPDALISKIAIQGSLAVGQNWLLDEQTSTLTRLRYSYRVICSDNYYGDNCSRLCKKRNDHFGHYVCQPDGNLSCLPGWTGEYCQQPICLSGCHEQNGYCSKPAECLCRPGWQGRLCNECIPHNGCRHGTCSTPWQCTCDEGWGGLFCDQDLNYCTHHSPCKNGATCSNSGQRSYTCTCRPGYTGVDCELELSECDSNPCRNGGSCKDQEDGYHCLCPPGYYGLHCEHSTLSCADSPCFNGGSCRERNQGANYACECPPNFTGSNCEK
# Procedure: 166. To determine the ability of the C4 and C5 nanobodies to bind DLL4, C4 and C5 nanobodies were incubated with increasing concentrations of biotinylated human DLL4 (N-terminus to EGF5) and binding was detected using streptavidin labeled with Alexa Fluor 647. Fluorescence was then monitored by flow cytometry and EC50 values were calculated for each nanobody (FIG. 5).
# [5] = biological target: T2, biotinylated murine DLL4 protein, …; assay: yeast display, biotinylated mDLL4 + SA-647, flow cytometry
# Procedure: as §2
# T1 sequence (Q9NR61 27-323 limits assumed): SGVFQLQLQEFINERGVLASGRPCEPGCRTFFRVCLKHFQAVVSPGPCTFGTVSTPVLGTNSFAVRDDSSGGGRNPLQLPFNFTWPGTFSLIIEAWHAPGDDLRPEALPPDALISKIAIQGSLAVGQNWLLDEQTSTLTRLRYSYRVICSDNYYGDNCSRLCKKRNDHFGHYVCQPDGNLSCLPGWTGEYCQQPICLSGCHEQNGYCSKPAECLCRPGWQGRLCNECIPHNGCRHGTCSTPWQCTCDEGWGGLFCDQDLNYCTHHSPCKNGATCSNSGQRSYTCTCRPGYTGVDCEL
Binder,binding result (human DLL4 (N-EGF3) [1]),binding result [2],binding result (human DLL4 (N-EGF3) [3]),binding result [4],binding result [5]
nanobody clone B1 (VHH) VHH: QVQLQESGGGLVQAGGSLRLSCAASGTIFYSSDMGWYRQAPGKEREFVAGINRGSTTYYADSVKGRFTISRDNAKNTVYLQMNSLKPEDTAVYYCAVVSDVLTRLFYWGQGTQVTVSS,binds,binds,,,
nanobody clone B4 (VHH) VHH: QVQLQESGGGLVQAGGSLRLSCAASGNISVWIPMGWYRQAPGKEREFVASIGEGSTTYYADSVKGRFTISRDNAKNTVYLQMNSLKPEDTAVYYCAVPYYGHSDYDYWGQGTQVTVSS,,binds,no binding,,
nanobody clone C4 (VHH) VHH: QVQLQESGGGLVQAGGSLRLSCAASGSISGDVEMGWYRQAPGKEREFVAGINDGGNTYYADSVKGRFTISRDNAKNTVYLQMNSLKPEDTAVYYCAVSTTYPSYNESQYADWLAYWGQGTQVTVSS,binds,binds,,binds,
nanobody clone A7 (VHH) VHH: QVQLQESGGGLVQAGGSLRLSCAASGNIFYTYSMGWYRQAPGKEREFVAAISAGTITYYADSVKGRFTISRDNAKNTVYLQMNSLKPEDTAVYYCAVFAPRDVIHYYWGQGTQVTVSS,binds,,,,binds
nanobody clone C5 (VHH) VHH: QVQLQESGGGLVQAGGSLRLSCAASGNISTGTAMGWYRQAPGKEREFVAGIAYGATTYYADSVKGRFTISRDNAKNTVYLQMNSLKPEDTAVYYCAVEVSQSTPGGRYSVAYLIYWGQGTQVTVSS,binds,binds,,binds,
nanobody clone C2 (VHH) VHH: QVQLQESGGGLVQAGGSLRLSCAASGSISVVYGMGWYRQAPGKEREFVAGISYGGSTYYADSVKGRFTISRDNAKNTVYLQMNSLKPEDTAVYYCAVDASYWDTLVYWGQGTQVTVSS,,binds,no binding,,
nanobody clone A8 (VHH) VHH: QVQLQESGGGLVQAGGSLRLSCAASGTIFEERVMGWYRQAPGKEREFVAGIASGAITYYADSVKGRFTISRDNAKNTVYLQMNSLKPEDTAVYYCAAQGYSFKTKPDYSAYVLVYWGQGTQVTVSS,,binds,no binding,,
nanobody clone A9 (VHH) VHH: QVQLQESGGGLVQAGGSLRLSCAASGTISQDSGMGWYRQAPGKEREFVAGITAGSITYYADSVKGRFTISRDNAKNTVYLQMNSLKPEDTAVYYCAASYVSVQAHTYWGQGTQVTVSS,,binds,no binding,,
